Source: patent US7067277 (H LUNDBECK A S, dated 2006)
Numbering of substitutions follows the chain as printed.

T1: human α2A adrenergic receptor (human, UniProt P08913 1-465)
T1 sequence (looked up): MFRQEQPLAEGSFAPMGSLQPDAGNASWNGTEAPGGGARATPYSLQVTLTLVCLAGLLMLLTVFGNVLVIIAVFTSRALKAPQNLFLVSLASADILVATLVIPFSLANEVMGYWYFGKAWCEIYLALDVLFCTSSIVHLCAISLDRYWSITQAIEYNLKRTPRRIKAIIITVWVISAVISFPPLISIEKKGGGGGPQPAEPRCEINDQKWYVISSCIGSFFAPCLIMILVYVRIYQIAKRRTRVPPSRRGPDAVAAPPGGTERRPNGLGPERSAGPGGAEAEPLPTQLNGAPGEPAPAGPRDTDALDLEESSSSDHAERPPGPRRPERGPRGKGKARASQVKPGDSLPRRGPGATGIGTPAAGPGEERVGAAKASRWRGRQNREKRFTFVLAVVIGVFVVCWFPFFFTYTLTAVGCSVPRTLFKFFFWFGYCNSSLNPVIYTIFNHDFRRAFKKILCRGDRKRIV

T2: human GALR2 receptor (human, UniProt O43603 1-387)
T2 sequence (looked up): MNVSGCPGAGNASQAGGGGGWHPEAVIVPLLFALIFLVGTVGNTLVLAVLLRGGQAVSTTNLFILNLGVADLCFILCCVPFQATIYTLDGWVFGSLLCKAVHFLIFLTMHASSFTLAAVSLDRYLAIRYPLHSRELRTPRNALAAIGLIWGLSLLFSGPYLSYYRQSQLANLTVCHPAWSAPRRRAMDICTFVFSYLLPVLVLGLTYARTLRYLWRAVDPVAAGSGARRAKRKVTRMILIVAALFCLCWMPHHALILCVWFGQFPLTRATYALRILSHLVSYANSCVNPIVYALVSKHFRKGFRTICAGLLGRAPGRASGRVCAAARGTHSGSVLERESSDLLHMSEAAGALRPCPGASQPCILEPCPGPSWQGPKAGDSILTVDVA

T3: human GALR1 receptor (human, UniProt P47211 1-349)
T3 sequence (looked up): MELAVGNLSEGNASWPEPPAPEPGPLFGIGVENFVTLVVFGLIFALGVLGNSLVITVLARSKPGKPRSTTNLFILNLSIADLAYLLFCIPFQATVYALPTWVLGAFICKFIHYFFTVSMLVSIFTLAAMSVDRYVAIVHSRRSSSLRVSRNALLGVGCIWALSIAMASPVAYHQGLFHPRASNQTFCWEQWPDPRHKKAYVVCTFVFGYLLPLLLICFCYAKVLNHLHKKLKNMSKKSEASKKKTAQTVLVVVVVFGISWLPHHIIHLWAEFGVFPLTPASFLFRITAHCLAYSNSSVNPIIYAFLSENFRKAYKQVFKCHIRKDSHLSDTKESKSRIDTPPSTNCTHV

B1: C. elegans Gαq/z5 (other)
chain: MACCLSEEAREQKRINQEIEKQLQRDKRNARRELKLLLLGTGESGKSTFIKQMRIIHGQGYSEEDKRAHIRLVYQNVFMAIQSMIRAMDTLDIKFGNESEELQEKAAVVREVDFESVTSFEEPYVSYIKELWEDSGIQECYDRRREYQLTDSAKYYLSDLRRLAVPDYLPTEQDILRVRVPTTGIIEYPFDLEQIIFRMVDVGGQRSERRKWIHCFENVTSIMFLVALSEYDQVLVECDNENRMEESKALFRTIITYPWFTNSSVILFLNKKDLLEEKILYSHLADYFPEYDGPPRDPIAAREFILKMFVDLNPDADKIIYSHFTCATDTENIRFVFAAVKDTILQHNLKYIGLC
B2: C. elegans Gαq/z9 (other)
chain: B1 chain with H347N
B3: Human Gαq/z5 (Ala→Ser substitution at position 171) (other)
chain: MTLESIMACCLSEEAKEARRINDEIERQLRRDKRDARRELKLLLLGTGESGKSTFIKQMRIIHGSGYSDEDKRGFTKLVYQNIFTAMQAMIRAMDTLKIPYKYEHNKAHAQLVREVDVEKVSAFENPYVDAIKSLWNDPGIQECYDRRREYQLSDSTKYYLNDLDRVADPSYLPTQQDVLRVRVPTTGIIEYPFDLQSVIFRMVDVGGQRSERRKWIHCFENVTSIMFLVALSEYDQVLVESDNENRMEESKALFRTIITYPWFQNSSVILFLNKKDLLEEKIMYSHLVDYFPEYDGPQRDAQAAREFILKMFVDLNPDSDKIIYSHFTCATDTENIRFVFAAVKDTILQLNLKYIGLC

Legend:
Assay in all cases: cell-based or functional assay
human 5HT1B receptor = human 5HT1B receptor (human, UniProt P28222 1-390)
human 5HT1B receptor, sequence (P28222 whole entry): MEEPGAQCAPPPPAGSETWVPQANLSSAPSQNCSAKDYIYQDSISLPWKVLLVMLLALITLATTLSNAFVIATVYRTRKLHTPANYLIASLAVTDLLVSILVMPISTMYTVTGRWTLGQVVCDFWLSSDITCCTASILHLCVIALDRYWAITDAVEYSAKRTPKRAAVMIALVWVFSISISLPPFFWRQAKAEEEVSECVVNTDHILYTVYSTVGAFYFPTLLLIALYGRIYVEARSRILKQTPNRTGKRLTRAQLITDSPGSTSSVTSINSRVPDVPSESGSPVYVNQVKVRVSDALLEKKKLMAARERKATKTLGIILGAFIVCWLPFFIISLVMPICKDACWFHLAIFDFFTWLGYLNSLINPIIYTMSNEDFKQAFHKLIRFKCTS

human MCH receptor = human MCH receptor (human, UniProt Q99705 1-353)
human MCH receptor, sequence (Q99705 whole entry): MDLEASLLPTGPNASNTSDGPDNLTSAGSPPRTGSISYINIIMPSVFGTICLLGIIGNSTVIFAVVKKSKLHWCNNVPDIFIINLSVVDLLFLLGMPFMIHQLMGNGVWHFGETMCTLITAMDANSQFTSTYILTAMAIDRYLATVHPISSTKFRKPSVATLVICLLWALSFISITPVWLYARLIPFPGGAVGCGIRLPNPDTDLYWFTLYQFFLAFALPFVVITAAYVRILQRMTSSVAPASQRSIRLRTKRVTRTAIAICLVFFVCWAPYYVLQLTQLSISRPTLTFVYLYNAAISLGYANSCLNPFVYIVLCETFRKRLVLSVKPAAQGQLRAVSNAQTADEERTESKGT

[1] = target: human dopamine D3 receptor (human, UniProt P35462 1-400)
human dopamine D3 receptor, sequence (P35462 whole entry): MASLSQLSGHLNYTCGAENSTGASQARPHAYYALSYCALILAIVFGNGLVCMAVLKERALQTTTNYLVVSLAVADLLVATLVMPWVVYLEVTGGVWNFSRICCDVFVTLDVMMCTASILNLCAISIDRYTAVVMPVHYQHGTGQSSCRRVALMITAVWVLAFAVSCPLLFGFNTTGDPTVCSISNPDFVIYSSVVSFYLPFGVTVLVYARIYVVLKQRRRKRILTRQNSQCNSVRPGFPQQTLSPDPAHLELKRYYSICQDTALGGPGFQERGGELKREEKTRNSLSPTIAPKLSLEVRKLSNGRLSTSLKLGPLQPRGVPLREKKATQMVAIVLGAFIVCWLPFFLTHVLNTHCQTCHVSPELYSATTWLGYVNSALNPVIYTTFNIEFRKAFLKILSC

human Y4 receptor = human Y4 receptor (human, UniProt P50391 1-375)
human Y4 receptor, sequence (P50391 whole entry): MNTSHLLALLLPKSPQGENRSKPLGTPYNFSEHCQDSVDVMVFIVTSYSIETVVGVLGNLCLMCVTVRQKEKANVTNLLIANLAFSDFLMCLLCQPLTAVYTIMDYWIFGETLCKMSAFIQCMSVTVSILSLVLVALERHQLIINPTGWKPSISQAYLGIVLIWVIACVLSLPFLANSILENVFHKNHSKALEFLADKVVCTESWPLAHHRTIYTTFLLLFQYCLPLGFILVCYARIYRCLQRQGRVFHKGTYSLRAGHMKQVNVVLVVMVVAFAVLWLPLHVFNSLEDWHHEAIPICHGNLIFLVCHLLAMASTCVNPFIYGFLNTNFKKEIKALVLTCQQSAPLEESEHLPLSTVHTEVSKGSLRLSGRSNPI

human GLP-1 receptor = human GLP-1 receptor (human, UniProt P43220 24-463)
[2] = target: T1, human α2A adrenergic receptor
mouse 5HT5B receptor = mouse 5HT5B receptor (mouse, UniProt P31387 1-370)
mouse 5HT5B receptor, sequence (P31387 whole entry): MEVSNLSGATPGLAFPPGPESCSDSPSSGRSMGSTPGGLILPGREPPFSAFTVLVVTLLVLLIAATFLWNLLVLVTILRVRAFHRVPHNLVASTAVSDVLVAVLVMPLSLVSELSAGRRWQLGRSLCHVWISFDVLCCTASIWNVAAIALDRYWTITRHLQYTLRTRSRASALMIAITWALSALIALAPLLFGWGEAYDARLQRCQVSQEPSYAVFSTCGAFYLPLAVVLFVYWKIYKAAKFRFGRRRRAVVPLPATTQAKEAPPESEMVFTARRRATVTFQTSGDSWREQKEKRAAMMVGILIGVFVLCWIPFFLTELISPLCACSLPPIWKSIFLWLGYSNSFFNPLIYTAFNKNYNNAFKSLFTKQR

human 5HT1D receptor = human 5HT1D receptor (human, UniProt P28221 1-377)
human 5HT1D receptor, sequence (P28221 whole entry): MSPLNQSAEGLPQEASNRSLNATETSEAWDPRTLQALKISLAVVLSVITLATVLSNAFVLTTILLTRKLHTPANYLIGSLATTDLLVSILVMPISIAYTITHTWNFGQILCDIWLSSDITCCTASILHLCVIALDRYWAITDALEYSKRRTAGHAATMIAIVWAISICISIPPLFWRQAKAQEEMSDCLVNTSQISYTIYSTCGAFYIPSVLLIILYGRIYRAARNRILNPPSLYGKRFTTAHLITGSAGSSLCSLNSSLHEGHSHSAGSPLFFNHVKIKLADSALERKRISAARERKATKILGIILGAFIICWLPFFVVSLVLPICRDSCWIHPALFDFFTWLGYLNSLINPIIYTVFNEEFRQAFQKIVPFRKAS

human GALR2 receptor = target: T2, human GALR2 receptor
human 5HT7 receptor = human 5HT7 receptor (human, UniProt P34969 1-479)
human 5HT7 receptor, sequence (P34969 whole entry): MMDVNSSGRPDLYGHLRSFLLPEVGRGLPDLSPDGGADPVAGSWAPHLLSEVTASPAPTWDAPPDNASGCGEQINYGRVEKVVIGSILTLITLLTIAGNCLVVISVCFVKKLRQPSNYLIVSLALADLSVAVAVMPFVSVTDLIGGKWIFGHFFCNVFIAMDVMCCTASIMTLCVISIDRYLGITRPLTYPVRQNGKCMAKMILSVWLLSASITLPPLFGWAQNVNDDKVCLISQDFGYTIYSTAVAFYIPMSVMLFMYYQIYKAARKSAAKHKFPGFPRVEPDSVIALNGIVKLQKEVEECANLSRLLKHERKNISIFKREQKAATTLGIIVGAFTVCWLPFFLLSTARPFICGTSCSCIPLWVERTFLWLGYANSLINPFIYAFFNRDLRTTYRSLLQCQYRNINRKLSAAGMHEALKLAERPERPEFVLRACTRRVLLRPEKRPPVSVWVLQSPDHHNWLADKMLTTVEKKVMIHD

human GALR1 receptor = target: T3, human GALR1 receptor
[3] = target: human dopamine D1 receptor (human, UniProt P21728 1-446)
human dopamine D1 receptor, sequence (P21728 whole entry): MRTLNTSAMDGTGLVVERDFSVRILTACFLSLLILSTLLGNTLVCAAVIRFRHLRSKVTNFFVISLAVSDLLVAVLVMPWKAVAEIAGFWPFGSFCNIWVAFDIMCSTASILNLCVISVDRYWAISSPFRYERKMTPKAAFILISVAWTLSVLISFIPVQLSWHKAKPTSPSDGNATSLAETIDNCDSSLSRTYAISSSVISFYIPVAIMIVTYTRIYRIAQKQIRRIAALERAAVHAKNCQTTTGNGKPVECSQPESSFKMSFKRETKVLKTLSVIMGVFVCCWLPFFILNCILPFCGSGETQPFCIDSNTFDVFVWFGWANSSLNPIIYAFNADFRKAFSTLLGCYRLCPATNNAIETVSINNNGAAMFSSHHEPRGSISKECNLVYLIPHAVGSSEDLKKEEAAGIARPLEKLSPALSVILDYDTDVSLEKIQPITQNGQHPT

Binder | max Ca2+ signal, COS-7, FLIPR; agonist 5HT (human 5HT1B receptor) [fluorescence units] | max Ca2+ signal, COS-7, FLIPR; agonist MCH (human MCH receptor) [fluorescence units] | max Ca2+ signal, COS-7, FLIPR; agonist DA [1] [fluorescence units] | max Ca2+ signal, COS-7, FLIPR; agonist PP (human Y4 receptor) [fluorescence units] | max Ca2+ signal, COS-7, FLIPR; agonist GLP-1 (human GLP-1 receptor) [fluorescence units] | max Ca2+ signal, COS-7, FLIPR; agonist NE [2] [fluorescence units] | max Ca2+ signal, COS-7, FLIPR; agonist 5HT (mouse 5HT5B receptor) [fluorescence units] | max Ca2+ signal, COS-7, FLIPR; agonist 5HT (human 5HT1D receptor) [fluorescence units] | max Ca2+ signal, COS-7, FLIPR; agonist GAL (human GALR2 receptor) [fluorescence units] | max Ca2+ signal, COS-7, FLIPR; agonist 5HT (human 5HT7 receptor) [fluorescence units] | max Ca2+ signal, COS-7, FLIPR; agonist GAL (human GALR1 receptor) [fluorescence units] | max Ca2+ signal, COS-7, FLIPR; 100 µM dopamine [3] [fluorescence units]
B1 | 929 | 2700 | 0 | 9420 | 131 | 7580 | 265 | 414 | 5470 | 166 | 7650 | 4830
B2 | 1220 | 3330 | 121 | 7400 | 135 | 3040 | 443 | 504 | 4900 | 129 | 8490 | 
B3 | 405 | 783 | 0 | 9970 | 287 | 10900 | 251 | 316 | 5990 | 90 | 4060 | 0
